# Measurements as given in patent US11571480B2, “Multi-ligand drug conjugates and uses thereof” (priority 2015, dated 2023).
# Numbered stars: 1 amine (or outer) side, 2 acyl side, 3 side chain; on linkers, the order of the positions; unused ones are H or OH. Bridge positions count the residues as written; N and C are the ends. Square brackets hold non-standard residues; d marks the D form. Peptide text beside a SMILES is read from it. I, II: the chains in the order shown. * marks the point of attachment. Hexanoyl(6-succinimido-3yl) = O=C1CC([*:1])C(=O)N1CCCCCC(=O)[*:2]; Dolaproine = CO[C@@H]([C@@H]1CCCN1)[C@@H](C)C(=O)O; Dil = CC[C@H](C)[C@H](NC)[C@@H](CC(=O)O)OC; PABC = O=C(OCc1ccc(N[*:1])cc1)[*:2]; X1 = C[C@@H](N*)[C@@H](O)c1ccccc1; Cit = NC(=O)NCCC[C@H](N)C(=O)O; NMeV = CN[C@H](C(=O)O)C(C)C
# Key:
# [1] = system: ovarian cancer cell SKOV3; experiment: Cytotoxicity test of conjugate LDC10H; format: cell-based, human; conditions: SKOV3, incubated 15-30 min, then 2-3 days
# Protocol: (§1) Culture medium: RPMI 1640 Medium, no folic acid
# (§2) 1) human lung cancer cell H1299, ovarian cancer cell SKOV3, breast cancer cell line HCC1954, and human lung cancer cell H460 were incubated at 37° C., 5% CO2 in RPMI 1640 medium containing 10% fetal bovine serum, the cells were passaged every 2-3 days.
# (§3) 2) human lung cancer cell H1299, ovarian cancer cell SKOV3, breast cancer cell line HCC1954, and human lung cancer cell H460 were plated at 1×10^3 cells per well (96-well plate) and incubated for 8-12 h at 37° C., 5% CO2.
# (§4) 3) Stock solutions of LDC conjugates or control were prepared in PBS solution. 100 μL/well of serially diluted LDC conjugates or control was added to the cells in the plate and incubated for 15-30 min at 37° C., 5% CO2. The culture medium in the wells was then removed by aspiration and the cells were incubated in fresh culture medium without conjugates (150 μL/well) for 2-3 days at 37° C., 5% CO2.
# (§5) 4) CellTiter 96® Aqueous One Solution Cell Proliferation Assay (Promega) was added to each well to measure the amount of […] cells, and the plate was incubated in an incubator for 1 h at 37° C., 5% CO2.
# (§6) 5) the plate was read at 490 nm on a microplate reader, and the cell survivals were compared for cells with or without the treatment of LDC conjugates. The LDC drug concentrations that are required for 50% cell death (IC50 values) were determined.
# [2] = system: breast cancer cell line HCC1954; experiment: Cytotoxicity test of conjugate LDC10H; format: cell-based, human; conditions: HCC1954, incubated 15-30 min, then 2-3 days
# Protocol: as §1, §2, §3, §4, §5, §6
# [3] = Detection of conjugate concentrations in xenograf tumor models (serum, anti-MMAE ELISA); format: in vivo, nude mice; conditions: 10 mg/kg, peritoneal injection
# Protocol: (§7) Animal: nude mice, aged 6-8 weeks, female
# 1) Human ovarian cancer cell SKOV3 and breast cancer cell line HCC1954 were incubated at 37° C., 5% CO2 in IMDM medium containing 10% fetal bovine serum, the cells were passaged every 2-3 days.
# 2) generation of tumors: 7×10^6 tumor cells were injected subcutaneously into the back of nude mice, and the mice were grouped for treatment after the tumor sizes were as large as about 100˜200 mm^3.
# 3) treatment: 3 mice/group, 10 mg/kg, peritoneal injection.
# 4) blood collection: the time for blood collection before treatment was set as 0, blood was collected at 20 min, 2 h, 4 h, and 24 h after treatment. The blood was centrifuged to collect serum, which was frozen and preserved.
# 5) Detection: the total amount of MMAE, LDC10B, LDC10H, as well as the MMAE metabolites of LDC10B and LDC10H in serum were detected by mice anti-MMAE ELISA kit.
# [4] = system: Transplanted H460 tumor; experiment: Inhibitory assay of conjugates LDC10B and LDC10H against xenograf tumors; format: in vivo, nude mice
# Protocol: as §7
# (§8) 1) human large cell lung cancer cell H460, human lung cancer cell A549, ovarian cancer cell SKOV3, and breast cancer cell line HCC1954 were incubated at 37° C., 5% CO2 in IMDM medium containing 10% fetal bovine serum, the cells were passaged every 2-3 days.
# (§9) 2) generation of tumors: 7×10^6 tumor cells were injected subcutaneously into the back of nude mice, and the mice were grouped for treatment after the tumor sizes were as large as about 100-200 mm^3.
# (§10) 3) treatment: 3 mice/group, treated with LDC10B, LDC10H, as well as controls MMAE and PBS with doses of 5 and 10 mg/kg every 5 days, three injections.
# (§11) 4) the physical performance, body weights and tumor sizes of the animals were monitored. The number of animal death was recorded during the experiment.
# [5] = system: Transplanted HCC1954 tumor; experiment: as above; format: in vivo, nude mice; conditions: 10 mg/kg
# Protocol: as §7, §8, §9, §10, §11
# [6] = system: human lung cancer cell H460; experiment: Cytotoxicity test of conjugate LDC10H; format: cell-based; conditions: H460, incubated 15-30 min, then 2-3 days
# Protocol: as §1, §2, §3, §4, §5, §6
# [7] = system: human lung cancer cell H1299; experiment: Cytotoxicity test of conjugate LDC10H; format: cell-based; conditions: H1299, incubated 15-30 min, then 2-3 days
# Protocol: as §1, §2, §3, §4, §5, §6
compound,measurement,setting,value
CC[C@H](C)[C@@H]([C@@H](CC(=O)N1CCC[C@H]1[C@H](OC)[C@@H](C)C(=O)N[C@H](C)[C@@H](O)c1ccccc1)OC)N(C)C(=O)[C@@H](NC(=O)[C@H](C(C)C)N(C)C(=O)OCc1ccc(NC(=O)[C@H](CCCNC(N)=O)NC(=O)[C@@H](NC(=O)CCCCCN2C(=O)CC(SC[C@H](NC(=O)[C@H](CCCNC(=N)N)NC(=O)[C@H](CCCNC(=N)N)NC(=O)[C@H](CCCNC(=N)N)NC(=O)[C@H](CCCNC(=N)N)NC(=O)[C@H](CCCNC(=N)N)NC(=O)[C@H](CCCNC(=N)N)NC(=O)[C@H](CCCNC(=N)N)NC(=O)[C@H](CCCNC(=N)N)NC(=O)[C@@H](N)CCCNC(=N)N)C(=O)N[C@@H](CCCCN)C(=O)N[C@@H](CCC(=O)O)C(=O)N[C@@H](Cc3ccccc3)C(=O)N[C@@H](CC(C)C)C(=O)N[C@@H](Cc3c[nH]cn3)C(=O)N3CCC[C@H]3C(=O)N[C@@H](CO)C(=O)N[C@@H](CCCCN)C(=O)N[C@H](C(=O)N[C@@H](CC(=O)O)C(=O)N[C@@H](CC(C)C)C(=O)N3CCC[C@H]3C(=O)N[C@@H](CCCNC(=N)N)C(=O)O)C(C)C)C2=O)C(C)C)cc1)C(C)C (stereo partly shown) [LDC10H] (I: H-RRRRRRRRRCKEFLHPSKVDLPR-OH / II: V[Cit][PABC][NMeV]V[Dil][Dolaproine]-X1; linker I:10-II:N via Hexanoyl(6-succinimido-3yl)),IC50,[1],73.8 nM
same,IC50,[2],36 nM
same,Concentration in serum,[3]; 20 min,770 ng/mL
same,Concentration in serum,[3]; 2 h,580 ng/mL
same,Concentration in serum,[3]; 4 h,196 ng/mL
same,Concentration in serum,[3]; 24 h,0 ng/mL
same,detected in serum at 24 h after treatment (in words),[3]; 24 h,none
same,Concentration in serum,[3]; Before Treatment,0 ng/mL
same,Body weight of mice,"[4]; 5 mg/kg, Before Injection",23.29 g
same,Body weight of mice,"[4]; 5 mg/kg, Five days after Injection 1",24.26 g
same,Body weight of mice,"[4]; 5 mg/kg, Five days after Injection 2",23.14 g
same,Body weight of mice,"[4]; 5 mg/kg, Five days after Injection 3",23.22 g
same,Body weight of mice,"[4]; 10 mg/kg, Before Injection",23.37 g
same,Body weight of mice,"[4]; 10 mg/kg, Five days after Injection 1",24.39 g
same,Body weight of mice,"[4]; 10 mg/kg, Five days after Injection 2",22.12 g
same,Body weight of mice,"[4]; 10 mg/kg, Five days after Injection 3",23.61 g
same,Body weight of mice,[5]; Before Injection,22.05 g
same,Body weight of mice,[5]; Five days after Injection 1,23.32 g
same,Body weight of mice,[5]; Five days after Injection 2,22.87 g
same,Body weight of mice,[5]; Five days after Injection 3,22.51 g
same,IC50,[6],85.3 nM
same,IC50,[7],90.4 nM
